Data: patent US8034783B2, “Prodomain modulators of ADAM 10” (Biozyme, Inc., priority 2006, dated 2011)

Columns and labels:
[1] = target: T1, human ADAM 9 catalytic/disintegrin domains (Homo sapiens, UniProt Q13443); experiment: Inhibition assay with ADAM 9; type: biochemical; settings: read-out: inhibition constant, ADAM 9 (human)
T1 construct: human ADAM 9 catalytic/disintegrin domains activity; purchased R & D Systems (Minneapolis, Minn., USA)
T1 sequence (Q13443 206-697 limits assumed): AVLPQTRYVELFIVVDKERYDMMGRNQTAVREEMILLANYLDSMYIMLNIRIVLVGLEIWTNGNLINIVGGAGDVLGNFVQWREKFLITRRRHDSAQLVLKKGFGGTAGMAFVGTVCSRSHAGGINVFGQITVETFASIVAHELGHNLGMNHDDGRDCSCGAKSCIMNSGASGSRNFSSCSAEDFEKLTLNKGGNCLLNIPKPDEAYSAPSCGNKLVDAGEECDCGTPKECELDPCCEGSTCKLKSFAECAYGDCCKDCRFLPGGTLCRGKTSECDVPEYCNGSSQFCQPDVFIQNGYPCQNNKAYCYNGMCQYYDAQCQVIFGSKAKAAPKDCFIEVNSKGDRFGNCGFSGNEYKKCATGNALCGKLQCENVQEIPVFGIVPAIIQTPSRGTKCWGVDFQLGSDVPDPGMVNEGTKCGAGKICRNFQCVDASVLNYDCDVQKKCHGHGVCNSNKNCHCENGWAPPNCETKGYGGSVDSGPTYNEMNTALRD
Method: Inhibition assays with ADAM 9. The fluorescent substrate, Dabcyl-PchaGC(Me)HAK(Fam)-NH2 (SEQ ID NO 19) (10 μM), in a buffer containing 25 mM Tris, pH 8.0, 0.0006% Brij-35, was used to measure human ADAM 9 catalytic/disintegrin domains activity. The ADAM 9 was provided as a 0.1 μg/μl stock solution, from which 3 μl was added to start the reaction in the absence or presence of ADAM10 prodomain (78-5000 nM). Fluorescence intensities were measured every 10-20 minutes at excitation and emission wavelengths of 485 and 530 nm respectively.
(§1) Calculation of inhibition constants. The amount of activity was calculated by subtracting the ADAM 10 prodomain control from the ADAM 10 prodomain with enzyme. All inhibition assays were performed at room temperature and the data fit to the following equation using Sigma Plot software:
(§2) [formula] where If is fractional inhibition, I is the inhibitor concentration and Ki is the inhibition constant.

[2] = target: T2, TACE (human) Cat (Homo sapiens, UniProt P78536); experiment: Inhibition assay with TACE catalytic domain, fluorescent substrate; type: biochemical; settings: room temperature; read-out: inhibition constant, TACE (human) Cat
T2 construct: TACE catalytic domain, Marcos Milla, University of Pennsylvania; donated by Marcos Milla, University of Pennsylvania
Method: (§3) Inhibition assays with TACE and ADAM 10. Activity of TACE catalytic/disintegrin, TACE catalytic, or ADAM10 catalytic/disintegrin constructs was monitored at 3 minute intervals using the fluorescent substrate, Dabcyl-LAQAHomoPheRSC(Fluorescein)-NH2 (SEQ ID NO 17) with excitation 485 nm and emission 530 nm. The substrate was diluted from a 10 mM stock in DMSO to 10 μM in assay buffer containing 20 mM Tris, pH 8.0, and 0.0006% Brij-35. Reactions were run in a 96-well black-coated plate with either ADAM10 prodomain (10 nM-1.0 μM) alone or with enzyme. Concentrations of enzyme ranged from 0.5-2.0 nM for TACE and 5-15 nM for ADAM10. For assays with TACE and ADAM8 prodomain, the range of concentrations varied from 1-4.7 μM.
as §1, §2

[3] = target: T3, ADAM 10 (human) Cat/Dis (Homo sapiens, UniProt O14672); experiment: Inhibition assay with ADAM10 catalytic/disintegrin construct, fluorescent substrate; type: biochemical; settings: room temperature, 10 μM fluorescent substrate; read-out: inhibition constant (Ki), ADAM 10 (human) Cat/Dis
T3 construct: containing the catalytic/disintegrin domains; purchased R & D Systems (Minneapolis, Minn., USA)
T3 sequence (O14672 214-672 limits assumed): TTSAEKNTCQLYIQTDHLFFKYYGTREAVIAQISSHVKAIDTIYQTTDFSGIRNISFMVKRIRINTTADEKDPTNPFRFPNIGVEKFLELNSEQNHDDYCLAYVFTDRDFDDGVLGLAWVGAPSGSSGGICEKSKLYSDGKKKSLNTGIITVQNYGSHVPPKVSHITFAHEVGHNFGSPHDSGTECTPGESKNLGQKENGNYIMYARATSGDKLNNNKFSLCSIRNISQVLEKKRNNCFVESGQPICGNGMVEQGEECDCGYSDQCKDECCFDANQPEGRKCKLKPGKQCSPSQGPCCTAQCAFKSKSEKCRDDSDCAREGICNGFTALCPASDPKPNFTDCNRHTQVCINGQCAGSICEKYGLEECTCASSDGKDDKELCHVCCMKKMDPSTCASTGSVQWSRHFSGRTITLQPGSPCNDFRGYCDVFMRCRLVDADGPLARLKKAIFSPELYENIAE
Method: as §3, §1, §2
Wild type ADAM 10 prodomain (23-213) was tested to determine the mode of inhibition of ADAM 10 protein. ADAM 10 protein was diluted 1:100 in buffer 25 mM Tris pH 8, 0.0006% Brij-35 and then 10 μl was added to 88 μl of substrate (20-100 μM), Dabcyl-LAQAHomoPheRSC(Fluorescein)-NH2 with excitation 485 nm and emission 530 nm. Prodomain, 2 μl, in 25 mM Tris, pH 8, 100 mM NaCl, 10% glycerol, 0.1% mercaptoethanol, and 50 μM CaCl2 was added to substrate before addition of enzyme. The final concentration of prodomain ranged from 17-170 nM. The fluorescence vs time was plotted, and slopes were taken from straight line fits of initial velocities. The reciprocal of the velocities was plotted vs the reciprocal of substrate squared since the normal Lineweaver Burke plot gave curved lines. The initial velocities vs substrate concentrations were fit as a family of curves to several allosteric models.

[4] = tested on: CD23 shedding in U937 cells; experiment: CD23 release from U937 cells, soluble CD23 ELISA; type: cell-based; settings: 150-600 nM, IL-4, 24 hr, FIG. 2B
Method: ADAM 10 prodomains were also tested in assays to determine if ADAM 10 protein functions as a CD23 sheddase. Cells (100,000 per well) were seeded in round-bottomed 96-well plates (Sarstedt, Newton, N.C.) in 0.2 ml of media supplemented with IL-4 with inhibitors (A10 23-215 150-600 nM, GM6001 10-50 μM, TAPI-2 10-50 μM, or TIMPs 250 nM) or vehicle controls (A10 23-215 buffer: 25 mM NaH2PO4 pH 7.0, 125 mM KCl, 75 mM NaCl 20% glycerol, PBS, or dimethyl sulfoxide). Cells were cultured for 24 hr. The conditioned medium was harvested by centrifugation (2000×g, 15 min). The conditioned medium was assayed by ELISA for soluble CD23 according to the manufacturers' instructions (BD Biosciences, Invitrogen).

T2 sequence (P78536 223-474 limits assumed): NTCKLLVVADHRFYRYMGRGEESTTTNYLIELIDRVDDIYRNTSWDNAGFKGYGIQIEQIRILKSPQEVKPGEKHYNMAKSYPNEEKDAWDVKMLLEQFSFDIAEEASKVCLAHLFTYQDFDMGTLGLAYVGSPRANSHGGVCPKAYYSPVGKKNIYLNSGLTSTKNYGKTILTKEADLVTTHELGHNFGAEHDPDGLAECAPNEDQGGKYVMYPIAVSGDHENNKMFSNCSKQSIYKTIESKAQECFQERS

B1: C173S ProADAM 10 23-213 (C-terminal His tag): mouse ADAM 10 prodomain 23-213 with cysteine 173 mutated to serine, C-terminal His tag (protein, UniProt O35598 23-213, looked up, variant C173S)
chain: NPLNKYIRHYEGLSYNVDSLHQKHQRAKRAVSHEDQFLLLDFHAHGRQFNLRMKRDTSLFSDEFKVETSNKVLDYDTSHIYTGHIYGEEGSFSHGSVIDGRFEGFIKTRGGTFYIEPAERYIKDRILPFHSVIYHEDDINYPHKYGPQGGSADHSVFERMRKYQMTGVEEGARAHPEKHAASSGPELLRKK
modifications: pro-form C-terminal His tag
notes: mouse ADAM 10 prodomain 23-213 with cysteine 173 mutated to serine, C-terminal His tag
[1]
  Ki: > 1000 nM
[2]
  Ki: > 3000 nM
[3]
  Ki: 36 ± 9 nM
[4]
  inhibition of CD23 shedding, U937 cells: about 30%
